Consider 116 sequences from the supplement of paper PMC10724198.

± gives the standard deviation of the averaged measurements.
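Note: PSI is a weighted mean of sequencing reads over stability bins, variants kept only with over 10 reads, mCherry proximal and sfGFP distal, peptide attached via GGGS linker.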

For the series, the system named is Saccharomyces cerevisiae. Put plainly: protein stability index of tFT-peptide fusion (C-terminal peptide) (PSI (0-1 scale)); higher = more stable (slower turnover). Conditions: genetic background: wild type; temperature: 30 C. On the procedure:
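Multiplexed protein stability (MPS) profiling in S. cerevisiae. Random 12-aa peptides (tFT-X12 library) are fused to the C-terminus of a sfGFP-mCherry tandem fluorescent timer, after mCherry and a GGGS linker. Cells are FACS-sorted into 8 mCherry/sfGFP bins and deep-sequenced. The protein stability index (PSI) is the read-weighted bin average, scaled from 0 (unstable) to 1 (stable). Only peptides with >10 reads are reported; cells were grown at 30 °C in SC-His with glucose.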
With GGEVPFRLCRLW, the protein stability index came to 0.6914 ± 0.0019.

In the case of GGFFLFAVGVGN, the protein stability index is 0.627 ± 0.013.

Regarding GGGAGGGGVVVR, the protein stability index came out at 0.643 ± 0.016.

As to GGGARCGGGCRV, the protein stability index is 0.684 ± 0.03.

As for GGGARGDCLMGS, the protein stability index turned out to be 0.6809 ± 0.0018.

GGGARGGGGWGG: the protein stability index worked out at 0.631 ± 0.097.

Turning to GGGCRASSLFPE, the protein stability index was 0.6644 ± 0.0058.

Take GGGEGREEQEGR: the protein stability index was 0.701 ± 0.019.

GGGEGVPDSASE returned a protein stability index of 0.668 ± 0.021.

For GGGGAGGGGGGG, the protein stability index was found to be 0.6739 ± 0.0021.

In the case of GGGGATSGRLSR, the protein stability index came out at 0.705 ± 0.023.

The sequence GGGGCVMGVGRV displayed a protein stability index of 0.668 ± 0.0092.

The sequence GGGGGAGGDGRG came in with a protein stability index of 0.66 ± 0.022.

GGGGGAKGEGVR displayed a protein stability index of 0.733 ± 0.1.

GGGGGGGGAGGV displayed a protein stability index of 0.6985 ± 0.0011.

GGGGGGGGAWSG had a protein stability index of 0.723 ± 0.037.

In the case of GGGGGGVRWASG, the protein stability index is 0.707 ± 0.051.

The sequence GGGGGSMDLRDR displayed a protein stability index of 0.697 ± 0.0076.

With GGGGGVWWVGRV, the protein stability index turned out to be 0.678 ± 0.074.

For GGGGLFGCWVCG, the protein stability index turned out to be 0.654 ± 0.011.

Turning to GGGGMVVGEVVG, the protein stability index was 0.685 ± 0.038.

With GGGGPGLEARSL, the protein stability index is 0.618 ± 0.0078.

For GGGGRGGVVRSG, the protein stability index was determined as 0.634 ± 0.095.

GGGGRGMWGIFG yielded a protein stability index of 0.676 ± 0.045.

Consider GGGGSCWYGNRL, for which the protein stability index was determined as 0.6353 ± 0.0027.

Regarding GGGGVFGVVRVG, the protein stability index was 0.631 ± 0.037.

As to GGGGWGRGKGCW, the protein stability index is 0.719 ± 0.0079.

GGGIERYCWLQI displayed a protein stability index of 0.708 ± 0.067.

With GGGKRGDMSVVV, the protein stability index was found to be 0.689 ± 0.0092.

GGGKRSERGGEP had a protein stability index of 0.672 ± 0.12.

On to GGGLGRRLLGGR, for which the protein stability index came to 0.69 ± 0.078.

GGGRALGRVWPG returned a protein stability index of 0.684 ± 0.017.

GGGRGAGIPVIF came in with a protein stability index of 0.623 ± 0.073.

In the case of GGGRGDWALRGG, the protein stability index was determined as 0.751 ± 0.011.

On to GGGRGVAVVWVV, for which the protein stability index stood at 0.61 ± 0.023.

GGGRRVCGVLAV: the protein stability index worked out at 0.619 ± 0.013.

The sequence GGGSGVLEWGSV displayed a protein stability index of 0.714 ± 0.12.

Take GGGVEAIEVSQG: the protein stability index stood at 0.678 ± 0.041.

GGGVGRLAGLLG: the protein stability index was found to be 0.693 ± 0.046.

In turn, GGGVRWGVGRGG showed a protein stability index of 0.652 ± 0.025.

On to GGGVSCGRWGTG, for which the protein stability index stood at 0.639 ± 0.086.

In turn, GGGVSFWLGGVA gave a protein stability index of 0.633 ± 0.045.

Regarding GGGVVGPGGVLK, the protein stability index was found to be 0.705 ± 0.11.

As to GGGWGAGVRLTW, the protein stability index worked out at 0.757 ± 0.021.

For the sequence GGGWGGGGGVWG, the protein stability index was 0.686 ± 0.047.

For the sequence GGGWRLIVLGWW, the protein stability index amounted to 0.585 ± 0.087.

GGHSVRCGGGAL returned a protein stability index of 0.758 ± 0.037.

Turning to GGILNLCVTSLC, the protein stability index is 0.617 ± 0.022.

Sequence GGKTRGVRMCGG yielded a protein stability index of 0.648 ± 0.014.

Regarding GGLGDIHSDDVE, the protein stability index is 0.681 ± 0.019.

On to GGLGGGRRGVGR, for which the protein stability index is 0.664 ± 0.012.

GGLIWRHGGGRG gave a protein stability index of 0.688 ± 0.023.

GGLLGAGGGCGV: the protein stability index was determined as 0.681 ± 0.046.

GGLVGACTRLSG registered a protein stability index of 0.657 ± 0.035.

GGPGGGRPGPRA showed a protein stability index of 0.6972 ± 0.0026.

As for GGPGGGVSGWEG, the protein stability index is 0.704 ± 0.12.

Sequence GGPVDGSVDRGR returned a protein stability index of 0.627 ± 0.017.

Turning to GGRALVGGRRHG, the protein stability index came to 0.756 ± 0.14.

With GGRAQVGGWWGR, the protein stability index was found to be 0.774 ± 0.031.

Sequence GGRGAGGGVELR registered a protein stability index of 0.661 ± 0.075.

In turn, GGRGAGRGSVGG came in with a protein stability index of 0.679 ± 0.034.

For GGRGRVGEMGGR, the protein stability index worked out at 0.677 ± 0.015.

As for GGRHARRGRRRR, the protein stability index stood at 0.75 ± 0.11.

GGRRVVKSWVLG had a protein stability index of 0.66 ± 0.014.

GGSGAGRRGGGR came in with a protein stability index of 0.72 ± 0.03.

As to GGSGGRVGVAGG, the protein stability index came to 0.645 ± 0.062.

Sequence GGSRGWGAAAGR yielded a protein stability index of 0.766 ± 0.065.

Turning to GGSRPPPFRPPA, the protein stability index amounted to 0.724 ± 0.014.

Sequence GGSRVSGVVGKG showed a protein stability index of 0.608 ± 0.0076.

For the sequence GGSVGSGSRLVV, the protein stability index worked out at 0.715 ± 0.038.

Turning to GGTGGWVVNRGV, the protein stability index was 0.706 ± 0.079.

With GGTRSDGYTQSR, the protein stability index came to 0.707 ± 0.017.

With GGTSVLPPAVLF, the protein stability index is 0.762 ± 0.004.

GGVCCGGLRGVS registered a protein stability index of 0.7398 ± 0.0039.

Turning to GGVCVGLWGGRG, the protein stability index amounted to 0.709 ± 0.043.

The sequence GGVDNWKAIRGI had a protein stability index of 0.737 ± 0.043.

In turn, GGVFCGGGALWA displayed a protein stability index of 0.614 ± 0.014.

GGVFWEEGAAER: the protein stability index was determined as 0.731 ± 0.023.

The sequence GGVGATSGRLSR returned a protein stability index of 0.712 ± 0.011.

In turn, GGVGGGVRRPGE displayed a protein stability index of 0.669 ± 0.034.

GGVGRGGIRVMG had a protein stability index of 0.629 ± 0.062.

Sequence GGVGRSWQEVGG displayed a protein stability index of 0.72 ± 0.025.

GGVGVYSVMVGG had a protein stability index of 0.575 ± 0.015.

As for GGVLERARRRGG, the protein stability index was found to be 0.708 ± 0.2.

In turn, GGVLERSRRRGG showed a protein stability index of 0.741 ± 0.17.

With GGVLSAGSWSGG, the protein stability index was determined as 0.665 ± 0.019.

Turning to GGVNRPRKSTAT, the protein stability index was found to be 0.6977 ± 0.0063.

In the case of GGVSRRVNGREA, the protein stability index is 0.708 ± 0.008.

With GGWGCWQAGGLT, the protein stability index stood at 0.7444 ± 0.0016.

Take GGWGGGGLGGAF: the protein stability index was 0.741 ± 0.037.

GGWPREVVGRGG had a protein stability index of 0.671 ± 0.09.

Turning to GGWSGRFVTVGR, the protein stability index worked out at 0.713 ± 0.066.

Consider GGWWGRAGENTR, for which the protein stability index is 0.729 ± 0.075.

Turning to GGWWGWAGENTR, the protein stability index is 0.7 ± 0.048.

On to GGYATYWVGVRL, for which the protein stability index was found to be 0.697 ± 0.036.

For the sequence GHGGSKIYCLVD, the protein stability index came out at 0.637 ± 0.062.

The sequence GHLRPFPPPLLP gave a protein stability index of 0.748 ± 0.089.

Take GIFRTRGFPPVG: the protein stability index is 0.694 ± 0.088.

GIGLSVGDVLGC returned a protein stability index of 0.73 ± 0.037.

GIIDGGTISRNK had a protein stability index of 0.692 ± 0.013.

In the case of GIISLTPRGCTR, the protein stability index worked out at 0.92 ± 0.11.

The sequence GINEGRAISDDW showed a protein stability index of 0.725 ± 0.021.

Consider GIPEFGYLYLVT, for which the protein stability index came to 0.613 ± 0.017.

In turn, GIPYGWLLCFPR returned a protein stability index of 0.813 ± 0.021.

Sequence GIRAEPSGGQAE came in with a protein stability index of 0.692 ± 0.057.

Sequence GISASYTASSSG registered a protein stability index of 0.642 ± 0.067.

Take GISPFYTALSGF: the protein stability index was 0.754 ± 0.03.

In turn, GIVFRGVVTWLL showed a protein stability index of 0.6 ± 0.0085.

Consider GIVRGFGGGGEE, for which the protein stability index stood at 0.662 ± 0.026.

In turn, GKAGGNREGTGT registered a protein stability index of 0.689 ± 0.048.

GKCTGSAEMRPQ had a protein stability index of 0.627 ± 0.079.

GKGEERGVATRT returned a protein stability index of 0.657 ± 0.0076.

Turning to GKIEVNTRIPGG, the protein stability index came to 0.646 ± 0.078.

In turn, GKNKKSKTLIKQ showed a protein stability index of 0.669 ± 0.029.

Take GKRAKKKNTKRY: the protein stability index was determined as 0.662 ± 0.14.

As for GKRHICFNHSGE, the protein stability index was found to be 0.6966 ± 0.0045.
